Source: article PMC6079076, “Structure of the mouse TRPC4 ion channel” (Nature Communications, 2018)

Target: the molecule itself
Test: cryo-EM structure; single-particle cryo-EM of purified TRPC4 in digitonin, 30 mM HEPES, 150 mM NaCl, 1 mM DTT, pH 7.5; apo state; C4 symmetry imposed; 3.3 Å

B1: mouse TRPC4 (residues a.a. 1–758, excluding a.a. 759–974) (domain or fragment, UniProt Q9QUQ5 1-758, looked up)
chain: MAQFYYKRNVNAPYRDRIPLRIVRAESELSPSEKAYLNAVEKGDYASVKKSLEEAEIYFKININCIDPLGRTALLIAIENENLELIELLLSFNVYVGDALLHAIRKEVVGAVELLLNHKKPSGEKQVPPILLDKQFSEFTPDITPIILAAHTNNYEIIKLLVQKGVSVPRPHEVRCNCVECVSSSDVDSLRHSRSRLNIYKALASPSLIALSSEDPFLTAFQLSWELQELSKVENEFKSEYEELSRQCKQFAKDLLDQTRSSRELEIILNYRDDNSLIEEQSGNDLARLKLAIKYRQKEFVAQPNCQQLLASRWYDEFPGWRRRHWAVKMVTCFIIGLLFPVFSVCYLIAPKSPLGLFIRKPFIKFICHTASYLTFLFLLLLASQHIDRSDLNRQGPPPTIVEWMILPWVLGFIWGEIKQMWDGGLQDYIHDWWNLMDFVMNSLYLATISLKIVAFVKYSALNPRESWDMWHPTLVAEALFAIANIFSSLRLISLFTANSHLGPLQISLGRMLLDILKFLFIYCLVLLAFANGLNQLYFYYEETKGLSCKGIRCEKQNNAFSTLFETLQSLFWSIFGLINLYVTNVKAQHEFTEFVGATMFGTYNVISLVVLLNMLIAMMNNSYQLIADHADIEWKFARTKLWMSYFEEGGTLPTPFNVIPSPKSLWYLVKWIWTHLCKKKMRRKPESFGTIGRRAADNLRRHHQYQEVMRNLVKRYVAAMIREAKTEEGLTEENVKELKQDISSFRFEVLGLLRGSK
notes: mouse TRPC4, a.a; 1-758 of 974 (a.a. 759-974 left out); MBP tag removed with PreScission protease; also called mTRPC4; truncated TRPC4; source: HEK293S GnTI- cells, BacMam baculovirus, purified (amylose resin, Superose 6); not shown: MBP, N-terminal, cleaved
stoichiometry N: 4
